The results in this text go back to patent US20150306011.

This data set has as its target histone H3 (acid extracted histones from untreated HeLa cells), P68431.

B1: PCAF histone acetylase enzyme (protein)
chain: MLEEEVYSQNSPIWDQDFLSASSRTSQLGIQTVINPPPVAGTISYNSTSSSLEQPNAGSSSPACKASSGLEANPGEKRKMTDSHVLEEAKKPRVMGDIPMELINEVMSTITDPAAMLGPETNFLSAHSARDEAARLEERRGVIEFHVVGNSLNQKPNKKILMWLVGLQNVFSHQLPRMPKEYITRLVFDPKHKTLALIKDGRVIGGICFRMFPSQGFTEIVFCAVTSNEQVKGYGTHLMNHLKEYHIKHDILNFLTYADEYAIGYFKKQGFSKEIKIPKTKYVGYIKDYEGATLMGCELNPRIPYTE
For B1, the “histone H3 acetylation in PCAF HAT reaction (immunoblot, diacetylated H3 Ac-Lys9+Ac-Lys14)” value is on record as 35-fold increase.
